According to patent publication US20190271021A1 (Hoffmann-La Roche, published 2019):

What was measured:
[1] = biological target: T1, TrkB-Fc fusion (R&D Systems) (UniProt Q16620 32-430); assay: TrkB ELISA, plate coated with TrkB-Fc, detection with anti-BDNF antibody
T1 construct: the ELISA paragraph says only TrkB-Fc fusion (R&D Systems); also called Human Fc-tagged TrkB; not shown: Fc part of the bought fusion
Experimental: The binding properties of BDNF-containing fusion proteins were determined with a TrkB ELISA. Maxisorb plates were coated with 1 μg/mL of a TrkB-Fc fusion (R&D Systems) in PBS overnight at 4° C. After blocking the plate with PBSTC (PBS with 0.05% Tween-20 and 2% Chicken serum (Gibco)) for 1 h at RT and three washes with PBST, BDNF-containing fusion proteins or BDNF alone were added to the wells at concentrations of 15 to 500 ng/mL in PBSTC and incubated for 2 h at RT. After six washes, the wells were incubated with mouse-anti-BDNF antibody (clone 4F11.1A1, 1 μg/mL in PBSTC) and, after further washes, with anti-mouse-HRP antibody (1:10000 in PBSTC), both for 1 h at RT. After three washes with PBST, HRP activity was detected using ABTS substrate and photometric quantification at a wavelength of 492 nm.

[2] = biological target: T2, human TrkB on CHO cells (CHO-K1-hTrkB/pSRE-Luc) (human, UniProt Q16620 32-822); assay: cell-based or functional assay
[3] = biological target: T2, human TrkB on CHO cells …; assay: cell-based or functional assay; remark: listed apart in the source

T1 sequence (Q16620 32-430 limits assumed): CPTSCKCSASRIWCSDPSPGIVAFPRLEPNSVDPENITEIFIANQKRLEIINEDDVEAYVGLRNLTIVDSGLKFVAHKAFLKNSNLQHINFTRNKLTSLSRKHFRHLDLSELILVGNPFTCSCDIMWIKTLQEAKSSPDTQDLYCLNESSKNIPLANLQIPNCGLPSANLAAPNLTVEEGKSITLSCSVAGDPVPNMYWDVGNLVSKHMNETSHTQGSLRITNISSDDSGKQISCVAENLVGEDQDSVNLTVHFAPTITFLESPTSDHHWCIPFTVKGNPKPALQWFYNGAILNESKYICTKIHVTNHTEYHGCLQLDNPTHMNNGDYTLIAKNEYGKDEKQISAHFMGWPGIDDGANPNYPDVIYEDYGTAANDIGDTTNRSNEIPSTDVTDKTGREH
T2 sequence (Q16620 32-822): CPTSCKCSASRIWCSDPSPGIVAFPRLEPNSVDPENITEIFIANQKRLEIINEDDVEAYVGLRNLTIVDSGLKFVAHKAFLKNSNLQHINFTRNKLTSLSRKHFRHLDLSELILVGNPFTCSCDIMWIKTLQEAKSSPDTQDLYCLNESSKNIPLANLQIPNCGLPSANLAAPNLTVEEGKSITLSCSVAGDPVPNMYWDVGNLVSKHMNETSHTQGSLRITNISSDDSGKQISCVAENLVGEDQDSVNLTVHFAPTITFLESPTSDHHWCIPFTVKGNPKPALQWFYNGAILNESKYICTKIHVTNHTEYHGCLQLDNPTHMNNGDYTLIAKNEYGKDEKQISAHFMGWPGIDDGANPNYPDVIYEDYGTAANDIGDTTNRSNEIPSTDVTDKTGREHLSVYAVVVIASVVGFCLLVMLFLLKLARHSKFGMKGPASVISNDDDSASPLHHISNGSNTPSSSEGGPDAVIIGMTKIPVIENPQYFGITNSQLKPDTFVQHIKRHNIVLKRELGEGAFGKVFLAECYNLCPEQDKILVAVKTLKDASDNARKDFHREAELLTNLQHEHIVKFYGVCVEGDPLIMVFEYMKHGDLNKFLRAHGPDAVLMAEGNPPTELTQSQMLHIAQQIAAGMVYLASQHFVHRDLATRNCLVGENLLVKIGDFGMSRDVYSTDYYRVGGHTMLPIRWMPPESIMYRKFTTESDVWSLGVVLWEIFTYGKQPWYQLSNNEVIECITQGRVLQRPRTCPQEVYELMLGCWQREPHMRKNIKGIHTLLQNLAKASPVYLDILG

B1: pre-pro-BDNF(-RGD)_(G4S)6GG_VH<IGF-1R>-CH1-His6 with anti-IGF-1R antibody light chain (other)
heavy: HSDPARRGELSVCDSISEWVTAADKKTAVDMSGGTVTVLEKVPVSKGQLKQYFYETKCNPMGYTKEGCRGIDKRHWNSQCRTTQSYVRALTMDSKKRIGWRFIRIDTSCVCTLTIKGGGGSGGGGSGGGGSGGGGSGGGGSGGGGSGGQVELVESGGGVVQPGRSQRLSCAASGFTFSSYGMHWVRQAPGKGLEWVAIIWFDGSSTYYADSVRGRFTISRDNSKNTLYLQMNSLRAEDTAVYFCARELGRRYFDLWGRGTLVSVSSASTKGPSVFPLAPSSKSTSGGTAALGCLVKDYFPEPVTVSWNSGALTSGVHTFPAVLQSSGLYSLSSVVTVPSSSLGTQTYICNVNHKPSNTKVDKKVGSGHHHHHH
light: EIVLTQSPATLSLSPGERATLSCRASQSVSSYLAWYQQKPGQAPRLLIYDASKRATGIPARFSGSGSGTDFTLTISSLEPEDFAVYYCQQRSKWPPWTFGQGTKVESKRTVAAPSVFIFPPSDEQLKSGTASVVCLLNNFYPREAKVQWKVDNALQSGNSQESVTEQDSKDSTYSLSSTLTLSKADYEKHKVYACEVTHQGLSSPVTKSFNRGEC
notes: BDNF part of the entry is the pre-pro precursor
[1]
  EC50: 18.5 nM

B2: pre-pro-BDNF(-RGD)_(G4S)2GG_VH<IGF-1R>-CH1-His6 with anti-IGF-1R antibody light chain (other)
heavy: HSDPARRGELSVCDSISEWVTAADKKTAVDMSGGTVTVLEKVPVSKGQLKQYFYETKCNPMGYTKEGCRGIDKRHWNSQCRTTQSYVRALTMDSKKRIGWRFIRIDTSCVCTLTIKGGGGSGGGGSGGQVELVESGGGVVQPGRSQRLSCAASGFTFSSYGMHWVRQAPGKGLEWVAIIWFDGSSTYYADSVRGRFTISRDNSKNTLYLQMNSLRAEDTAVYFCARELGRRYFDLWGRGTLVSVSSASTKGPSVFPLAPSSKSTSGGTAALGCLVKDYFPEPVTVSWNSGALTSGVHTFPAVLQSSGLYSLSSVVTVPSSSLGTQTYICNVNHKPSNTKVDKKVGSGHHHHHH
light: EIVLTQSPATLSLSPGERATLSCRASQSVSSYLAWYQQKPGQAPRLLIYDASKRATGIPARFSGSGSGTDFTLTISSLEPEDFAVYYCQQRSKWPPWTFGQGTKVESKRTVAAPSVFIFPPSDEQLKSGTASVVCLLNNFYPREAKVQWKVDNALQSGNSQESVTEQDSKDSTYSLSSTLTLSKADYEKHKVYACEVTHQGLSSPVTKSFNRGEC
notes: as for B1
[1]
  EC50: 17 nM

B3: wild-type BDNF (E. coli) (ligand)
chain: HSDPARRGELSVCDSISEWVTAADKKTAVDMSGGTVTVLEKVPVSKGQLKQYFYETKCNPMGYTKEGCRGIDKRHWNSQCRTTQSYVRALTMDSKKRIGWRFIRIDTSCVCTLTIKRGR
notes: No tag, no linker, RGR not deleted; also called wt-BDNF; non-glycosylated mature wild-type BDNF
[2]
  BDNF activity in TrkBluciferase assay, EC50 [% or nM]: 0.44 nM
[3]
  relative BDNF activity in TrkB luciferase assay, EC50 [%]: 60%
[1]
  EC50: 5.7 nM

B4: pre-pro-BDNF(-RGD)_(G4S)4GG_VH<IGF-1R>-CH1-His6 with anti-IGF-1R antibody light chain (other)
heavy: HSDPARRGELSVCDSISEWVTAADKKTAVDMSGGTVTVLEKVPVSKGQLKQYFYETKCNPMGYTKEGCRGIDKRHWNSQCRTTQSYVRALTMDSKKRIGWRFIRIDTSCVCTLTIKGGGGSGGGGSGGGGSGGGGSGGQVELVESGGGVVQPGRSQRLSCAASGFTFSSYGMHWVRQAPGKGLEWVAIIWFDGSSTYYADSVRGRFTISRDNSKNTLYLQMNSLRAEDTAVYFCARELGRRYFDLWGRGTLVSVSSASTKGPSVFPLAPSSKSTSGGTAALGCLVKDYFPEPVTVSWNSGALTSGVHTFPAVLQSSGLYSLSSVVTVPSSSLGTQTYICNVNHKPSNTKVDKKVGSGHHHHHH
light: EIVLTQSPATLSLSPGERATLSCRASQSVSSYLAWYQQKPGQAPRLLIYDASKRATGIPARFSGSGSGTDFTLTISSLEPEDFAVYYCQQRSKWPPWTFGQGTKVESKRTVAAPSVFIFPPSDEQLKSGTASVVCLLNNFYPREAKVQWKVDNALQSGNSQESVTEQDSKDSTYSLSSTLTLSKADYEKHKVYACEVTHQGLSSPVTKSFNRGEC
notes: as for B1
[1]
  EC50: 13.5 nM

B5: pre-pro-BDNF(-RGR)-T7-His6 (ligand)
chain: HSDPARRGELSVCDSISEWVTAADKKTAVDMSGGTVTVLEKVPVSKGQLKQYFYETKCNPMGYTKEGCRGIDKRHWNSQCRTTQSYVRALTMDSKKRIGWRFIRIDTSCVCTLTIKGSGMASMTGGQQMGHHHHHH
notes: Entry is the pre-pro precursor as expressed (HEK293); values normalized to maturated BDNF; also called pp-BDNF; parental construct
[1]
  EC50: 8.9 nM

B6: complex of pre-pro-BDNF(-RGD)_(G4S)2GG_VH<IGF-1R>-CH1-His6, anti-IGF-1R antibody light chain and not-fused pre-pro-BDNF(-RGR)-T7-His6 (other)
heavy: B2 heavy
light: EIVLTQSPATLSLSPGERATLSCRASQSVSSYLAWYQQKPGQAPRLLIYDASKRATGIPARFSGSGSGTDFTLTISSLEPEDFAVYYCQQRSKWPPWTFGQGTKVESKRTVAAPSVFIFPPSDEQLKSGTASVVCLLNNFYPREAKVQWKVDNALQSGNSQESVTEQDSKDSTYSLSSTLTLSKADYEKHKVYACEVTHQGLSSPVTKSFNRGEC
chain: B5 chain
notes: BDNF-Fab fusion co-expressed with light chain and not-fused BDNF; BDNF entries are pre-pro precursors
[1]
  EC50: 6.1 nM
